No end group written: not given here. *: point of attachment. FITC = O=C1OC2(c3ccc(O)cc3Oc3cc(O)ccc32)c2ccc(NC(=S)*)cc21
B1: mu-NS_(705-720) (MRV1) peptide (peptide)
peptide: VDGAADLIDFSVPTDE
B2: P/V/C_(183-198) (NiV) peptide (peptide)
peptide: TTGLNPTAVPFTLRNL
B3: PABP-interacting protein 2 peptide PAIP2_(108-123) (peptide, UniProt Q9BPZ3 108-123, looked up)
peptide: KSNLNPNAKEFVPGVK
notes: also called PAIP2 peptide
B4: P/V/C_(183-198) (HeV) peptide (peptide)
peptide: SAGLNPAAVPFVPKNQ
B5: N_(351-366) (HCoV 229E) peptide (peptide)
peptide: HPLLNPSALEFNPSQT
B6: PAIP2 108-123 (Human) (peptide)
peptide: KSNLNPNAKEFVPGVKY
B7: P/V/C 183-198 (NiV) (peptide)
peptide: TTGLNPTAVPFTLRNLY
B8: P/V/C 183-198 (HeV) (peptide)
peptide: SAGLNPAAVPFVPKNQY
B9: PAIP1 125-140 (Human) (peptide)
peptide: MSKLSVNAPEFYPSGY
B10: MDC1 1280-1295 (Human) (peptide)
peptide: TPEPVVPTAPELRPSTY
B11: VP40 1-20 (SEBOV) (peptide)
peptide: MRRVTVPTAPPAYADIGYPM
B12: FITC - gag 453-462 (HIV2) (peptide)
peptide: {FITC}-GLIPTAPPAD
B13: Nsp4 127-142 (BAV) (peptide)
peptide: NLKLTEPTAPMIHNYM
B14: Nsp4 118-142 (BAV) (peptide)
peptide: VDEEKGLYPNLKLTEPTAPMIHNYM
B15: PDCD6IP 711-727 (Human) (peptide)
peptide: QSIAREPSAPSIPTPAY
B16: tumor susceptibility gene 101 protein UEV domain (TSG101 UEV) (domain or fragment)
chain: AVSESQLKKMVSKYKYRDLTVRETVNVITLYKDLKPVLDSYVFNDGSSRELMNLTGTIPVPYRGNTYNIPICLWLLDTYPYNPPICFVKPTSSMTIKTGKHVDANGKIYLPYLHEWKHPQSDLLGLIQVMIVVFGDEPPVFSRP
B17: VHS domain of ADP-ribosylation factor-binding protein GGA3 (GGA3 VHS) (domain or fragment)
chain: ATNPSNRQEDWEYIIGFCDQINKELEGPQIAVRLLAHKIQSPQEWEALQALTVLEACMKNCGRRFHNEVGKFRFLNELIKVVSPKYLGDRVSEKVKTKVIELLYSWTMALPEEAKIKDAYHMLKRQGIVQS
B18: C terminal domain of polyadenylate-binding protein 1 (PABP1 PABC) (domain or fragment)
chain: QEPLTASMLASAPPQEQKQMLGERLFPLIQAMHPTLAGKITGMLLEIDNSELLHMLESPESLRSKVDEAVAVLQAHQA
notes: also called PABPC1 PABC; PABP1 C
B19: M 26-41 (RABV) (peptide)
peptide: PDDDDLWLPPPEYIPL
B20: IGF2R 2476-2491 (Human) (peptide)
peptide: YKLVSFHDDSDEDLLHI
B21: M6PR 262-277 (Human) (peptide)
peptide: YQLGEESEERDDHLLPM
B22: FITC - IGF2R 2482-2491 (Human) (peptide)
peptide: {FITC}-DDSDEDLLHI
B23: FITC - RABEP1 435-446 (Human) (peptide)
peptide: {FITC}-DESDFGPLVGAD
B24: NP 460-485 (ZEBOV) (peptide)
peptide: DPDDGSYGEYQSYSEN
B25: P/V/C 130-145 (NiV) (peptide)
peptide: SSPERGWSDYTSGANN
B26: CLINT1 366-381 (Human) (peptide)
peptide: TSGNGDFGDWSAFNQA
B27: SYNRG 664-679 (Human) (peptide)
peptide: SSLADDFGEFSLFGEY
B28: RABEP1 433-448 (Human) (peptide)
peptide: NLDESDFGPLVGADSVY
B29: F 519-534 (HeV) (peptide)
peptide: EKKRGNYSRLDDRQVR
B30: M 32-47 (WCBV) (peptide)
peptide: WLPPPEYVPLHEISSK
B31: NP 334-349 (ZEBOV) (peptide)
peptide: VNVGEQYQQLREAATE
B32: Nsp4 75-90 (BAV) (peptide)
peptide: NLNRVRYSKLDENGVY
B33: L 177-192 (OLVV) (peptide)
peptide: SIEELEYQRLVTSLSK
B34: N 124-139 (MuV) (peptide)
peptide: ANEIAAYALLADDLPP

Each binder was assayed against T1, N-terminal domain of clathrin (human, UniProt Q00610 1-364). Details: both partners purified.
T1 construct: also called CLTC NTD; CLTC-NTD
T1 sequence: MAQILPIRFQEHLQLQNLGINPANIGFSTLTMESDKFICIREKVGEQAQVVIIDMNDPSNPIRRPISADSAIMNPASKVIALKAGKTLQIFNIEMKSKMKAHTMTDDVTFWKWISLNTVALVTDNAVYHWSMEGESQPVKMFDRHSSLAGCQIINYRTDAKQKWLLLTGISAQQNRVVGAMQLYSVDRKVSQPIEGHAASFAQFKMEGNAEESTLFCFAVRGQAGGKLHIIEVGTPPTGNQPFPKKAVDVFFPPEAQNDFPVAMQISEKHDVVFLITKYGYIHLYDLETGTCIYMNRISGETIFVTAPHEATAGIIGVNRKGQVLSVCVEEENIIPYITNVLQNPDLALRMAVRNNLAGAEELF

B1: binds.

The binders below were run against T2, C terminal domain of polyadenylate-binding protein 1 (human, UniProt P11940 544-623). Details: both partners purified.
T2 construct: also called PABP1 PABC; PABC
T2 sequence (P11940 544-623): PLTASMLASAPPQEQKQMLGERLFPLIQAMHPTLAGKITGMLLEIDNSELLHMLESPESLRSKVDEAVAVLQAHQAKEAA

B2: binds.
B3: binds.
B5: binds.

For B4, the “fold weaker affinity than PAIP2(108-123)” value was 10 fold.

Each binder was assayed against B18. Details: both partners purified.

Point of comparison: B7, Kd 14.6 ± 0.8 µM. Against it:
- B6 — 91-fold lower, 0.16 ± 0.2 µM
- B8 — 7.3-fold lower, 2 ± 0.3 µM
- B9 — 9.2-fold lower, 1.58 ± 0.08 µM

The binders below were run against B16. Details: both partners purified.

Point of comparison: B14, Kd 73 ± 2 µM. Against it:
- B10 — 2.6-fold lower, 28 ± 0.7 µM
- B11 — 6-fold lower, 12.2 ± 0.3 µM
- B12 — 24-fold lower, 3.1 ± 0.2 µM
- B13 — within 1.5-fold, 64 ± 4 µM
- B15 — 2.1-fold higher, 152 ± 1 µM

Each binder was assayed against VP0 79-94 (HPeV5) (Human parechovirus 5 (strain CT86-6760) …). Details: both partners purified.

B16 showed a Kd of 75 ± 0.7 µM.

The binders below were run against P1 54-69 (SFV) (Semliki forest virus (SFV)). Details: both partners purified.

In the case of B17, the Kd is reported as 82 ± 5 µM.

Each binder was assayed against N 2-17 (BeV) (Berne virus (BEV)). Details: both partners purified.

Binder B18 has a Kd of 2.7 ± 0.1 µM.

These binders were tested against B17. Details: both partners purified.

Point of comparison: B20, Kd 4.7 ± 0.2 µM. Against it:
- B19 — 31-fold higher, 148 ± 8 µM
- B21 — 4.5-fold higher, 21 ± 1 µM
- B22 — within error, 4.2 ± 0.4 µM

Each binder was assayed against T3, GAE domain of ADP-ribosylation factor-binding protein GGA3 (GGA3 GAE) (human, UniProt Q9NZ52 594-715). Details: both partners purified.
T3 construct: also called GGA3 ear
T3 sequence (looked up): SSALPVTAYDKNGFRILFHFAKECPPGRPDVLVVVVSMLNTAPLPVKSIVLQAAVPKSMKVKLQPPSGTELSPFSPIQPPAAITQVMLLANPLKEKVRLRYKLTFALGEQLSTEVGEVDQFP

Point of comparison: B28, Kd 1.7 ± 0.3 µM. Against it:
- B23 — within error, 1.9 ± 0.1 µM
- B24 — 6.2-fold higher, 10.6 ± 0.5 µM
- B25 — 28-fold higher, 48 ± 6 µM
- B26 — 21-fold higher, 35 ± 3 µM
- B27 — 6.6-fold higher, 11.2 ± 0.3 µM

The binders below were run against T4, Mu homology domain (MHD) of the AP-2 subunit mu (AP2M1 MHD) (human, UniProt Q96CW1 170-434). Details: both partners purified.
T4 sequence (looked up): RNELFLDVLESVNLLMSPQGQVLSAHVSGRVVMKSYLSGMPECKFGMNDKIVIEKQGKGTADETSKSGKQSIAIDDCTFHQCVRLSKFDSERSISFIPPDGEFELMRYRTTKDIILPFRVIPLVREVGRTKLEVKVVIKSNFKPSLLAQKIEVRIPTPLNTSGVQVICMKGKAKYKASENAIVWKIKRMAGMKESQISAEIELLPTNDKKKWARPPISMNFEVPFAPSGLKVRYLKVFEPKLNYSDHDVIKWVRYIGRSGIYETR

Point of comparison: B34, Kd 4 ± 0.1 µM. Against it:
- B29 — 3.5-fold higher, 14 ± 1 µM
- B30 — 3-fold higher, 12 ± 0.4 µM
- B31 — 2.4-fold higher, 9.51 ± 0.07 µM
- B32 — 4-fold higher, 15.9 ± 0.2 µM
- B33 — 2.7-fold higher, 10.9 ± 0.1 µM

— article PMC10132805 (Nature Communications, 2023)
